What is called Kd is a measure of binding affinity in units of concentration. The low end stands for higher affinity, the high end for lower affinity.

This note sets out measurements from US20220378956A1.

This experiment concerns the target soluble uPAR (suPAR) (UniProt Q03405). Put plainly: SPR (Biacore 2000), antibody captured on protein A/G surface, suPAR injected, 25 C, 1:1 Langmuir fit. For orientation: SPR reads the build-up and loss of mass on a sensor chip optically.

B1: Human Engineered ATN-658 variant HE ATN-3 (antibody, V domains shown)
VH: EVQLVQSGPEVKKTGASVKISCKASGYSFTSYYMHWVRQAHGQGLEWIGEINPYNGGASYNQKIQGRATFTVDTSTSTAYMEFSSLRSEDTAVYYCARSIYGHSVLDYWGQGTLVTVSS
VL: DVVMTQSPLSLSVTIGEPASISCRSSQSLLDSDGKTYLNWLLQKPGQSPKRLIYLVSKRDSGVPDRFSGSGSGTDFTLKISRVEAEDVGVYYCWQGTHFPLTFGQGTKLEIK
In the case of B1, the Kd amounted to 0.28 nM.

B2: Human Engineered ATN-658 variant HE ATN-1 (antibody, human IgG1, V domains shown)
VH: EVQLVQSGPEVVKTGASVKISCKASGYSFTSYYMHWVKQAHGQGLEWIGEINPYNGGASYNQKIKGRATFTVDTSTRTAYMEFSSLRSEDTAVYYCARSIYGHSVLDYWGQGTLVTVSS
VL: DVVMTQSPLSLSVTIGEPASISCRSSQSLLDSDGKTYLNWLLQKPGQSPKRLIYLVSKRDSGVPDRFSGSGSGTDFTLKISRVEAEDVGVYYCWQGTHFPLTFGQGTKLEIK
In turn, B2 gave a Kd of 0.28 nM.
